Test results reported in article PMC5382714.

Columns and labels:
Experiment in all cases: co-IP
[1] = target: Syntaxin13 (Stx13), endogenous in HEK cells (human (endogenous in HEK293T)) (UniProt Q86Y82)
[2] = target: GFP-tagged GRIP1 (UniProt P97879)
[3] = target: GFP-tagged Rab4 (UniProt P20338)
UniProt P20338, sequence (P20338 whole entry): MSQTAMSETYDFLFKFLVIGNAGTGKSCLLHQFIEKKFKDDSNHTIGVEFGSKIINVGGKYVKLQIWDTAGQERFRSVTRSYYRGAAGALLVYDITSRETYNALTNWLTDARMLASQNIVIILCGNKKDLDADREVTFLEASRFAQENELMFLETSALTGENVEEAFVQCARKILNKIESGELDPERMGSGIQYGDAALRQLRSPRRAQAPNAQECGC

UniProt P97879, sequence (P97879 whole entry): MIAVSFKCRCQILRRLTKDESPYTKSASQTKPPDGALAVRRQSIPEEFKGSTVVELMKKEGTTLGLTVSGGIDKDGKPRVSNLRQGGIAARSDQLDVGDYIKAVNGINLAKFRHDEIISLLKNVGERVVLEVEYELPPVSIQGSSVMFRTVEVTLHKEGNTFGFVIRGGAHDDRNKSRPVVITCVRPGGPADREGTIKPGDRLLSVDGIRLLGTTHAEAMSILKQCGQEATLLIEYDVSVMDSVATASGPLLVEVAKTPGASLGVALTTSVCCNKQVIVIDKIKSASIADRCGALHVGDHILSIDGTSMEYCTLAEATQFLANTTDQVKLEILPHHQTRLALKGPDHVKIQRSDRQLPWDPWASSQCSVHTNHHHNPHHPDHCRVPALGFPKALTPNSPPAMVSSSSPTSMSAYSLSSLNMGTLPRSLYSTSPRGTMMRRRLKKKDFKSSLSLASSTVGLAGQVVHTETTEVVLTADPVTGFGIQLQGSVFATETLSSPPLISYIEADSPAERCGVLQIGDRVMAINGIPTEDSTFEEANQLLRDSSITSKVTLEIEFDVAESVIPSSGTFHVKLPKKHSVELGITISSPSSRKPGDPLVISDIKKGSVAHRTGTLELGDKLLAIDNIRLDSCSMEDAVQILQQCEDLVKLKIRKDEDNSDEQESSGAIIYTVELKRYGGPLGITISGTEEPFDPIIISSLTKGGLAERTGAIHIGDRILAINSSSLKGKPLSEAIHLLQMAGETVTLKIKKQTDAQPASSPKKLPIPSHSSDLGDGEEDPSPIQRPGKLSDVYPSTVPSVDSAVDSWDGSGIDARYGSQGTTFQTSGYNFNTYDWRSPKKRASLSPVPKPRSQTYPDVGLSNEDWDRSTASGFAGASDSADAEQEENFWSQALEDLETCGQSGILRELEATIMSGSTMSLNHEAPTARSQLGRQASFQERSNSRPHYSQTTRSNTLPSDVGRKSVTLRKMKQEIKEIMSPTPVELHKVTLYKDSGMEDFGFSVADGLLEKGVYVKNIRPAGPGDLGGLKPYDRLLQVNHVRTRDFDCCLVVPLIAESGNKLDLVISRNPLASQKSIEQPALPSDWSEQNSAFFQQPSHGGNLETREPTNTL
UniProt Q86Y82, sequence (Q86Y82 whole entry): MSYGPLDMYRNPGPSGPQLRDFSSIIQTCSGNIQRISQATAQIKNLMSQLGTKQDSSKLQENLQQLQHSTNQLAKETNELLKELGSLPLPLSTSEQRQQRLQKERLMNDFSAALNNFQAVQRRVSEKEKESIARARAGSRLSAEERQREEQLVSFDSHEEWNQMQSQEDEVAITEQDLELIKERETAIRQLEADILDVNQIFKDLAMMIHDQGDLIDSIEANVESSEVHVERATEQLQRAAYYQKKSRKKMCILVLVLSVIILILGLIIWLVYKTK

With “GRASP1 S73N (intellectual disability mutant) (from UniProt Q8VD04 1-806) (natural protein)” the GRASP1 co-precipitated with Stx13, % WT [1] was 553 % WT, the GRASP1 co-precipitated with GRIP1, % WT [2] was 206 % WT and the GRASP1 co-precipitated with Rab4, % WT [3] was 98.2 % WT.
Work on “GRASP1 R822Q (intellectual disability mutant) (from UniProt Q8VD04 1-806) (natural protein)” yielded a GRASP1 co-precipitated with Stx13, % WT [1] of 83.2 % WT, a GRASP1 co-precipitated with GRIP1, % WT [2] of 43.7 % WT and a GRASP1 co-precipitated with Rab4, % WT [3] of 105 % WT.
Work on “GRASP1 GBD deletion mutant (dGBD) (from UniProt Q8VD04 1-806) (natural protein)” yielded a GRASP1 co-precipitated with Stx13, % WT [1] of 62.7 % WT, a GRASP1 co-precipitated with GRIP1, % WT [2] of 42.6 % WT and a GRASP1 co-precipitated with Rab4, % WT [3] of 34.8 % WT.
